# Results published in the DeepSol protein solubility set.
# Test: soluble on expression in E. coli; label from the status in PepcDB or PDB records
row,Sequence,soluble on expression in E. coli
1,MRTLLDLDPKGKRVLVRVDYNVPVQDGKVQDETRILESLPTLRHLLAGGASLVLLSHLGRPKGPDPKYSLAPVGEALRAHLPEARFAPFPPGSEEARREAEALRPGEVLLLENVRFEPGEEKNDPELSARYARLGEAFVLDAFGSAHRAHASVVGVARLLPAYAGFLMEKEVRALSRLLKDPERPYAVVLGGAKVSDKIGVIESLLPRIDRLLIGGAMAFTFLKALGGEVGRSLVEEDRLDLAKDLLGRAEALGVRVYLPEDVVAAERIEAGVETRVFPARAIPVPYMGLDIGPKTREAFARALEGARTVFWNGPMGVFEVPPFDEGTLAVGQAIAALEGAFTVVGGGDSVAAVNRLGLKERFGHVSTGGGASLEFLEKGTLPGLEVLEG,soluble
2,MSLTVNNVGLRYGDKKLFEDVSIKFLPGNCYGLIGANGAGKSTFLKVLSGELDSQSGNVHIGSGERLAVLRQDHFQYDNELVLNTVIMGHERLYKIMDEKNAIYMKEDFSDEDGIRAAELEGEFAELDGWEAESDAAVLLNGLGIPTDLHGKLMKDLTGGEKVKVLLAQALFGKPDILLLDEPTNHLDIRAIHWLEEFLINFDNTVIVVSHDRHFLNKVCTHIADLDFSKIKLYVGNYDFWYESSQLAQTMMGDRNKKKEEKMKELQDFIARFSANASKSKQATSRKKMLEKITLEDIQPSSRRYPFIQFKPDREVGNDLLTVTNLSKTIDGVKILDNLSFSINRNDKVALVGDDEVAKTVLFQILAGEMEPDEGSYKWGITTSQSYFPKDNSEFFEENDMSLVEWLRQFSPEDDSEAFLRGFLGRMLFSGDEVLKKVRVLSGGEKVRCMLSKMMLSGSNVLLLDEPTNHLDLESITALNNGLEAFKGAMIFASHDHQLLQTIATRIINLSKDQFYNKEISYDEYLKEVMNVAEGHHHHHH,soluble
3,MKDTVMMKLNTKESMAQIDGQTIYFKQIGEGKPPLLMLHGFGGSSDGFSDIYPELARDHTIIAVDILGFGRSSKPVDFQYSFPAQVNLYYKLMKKLGYNQFAVLGHSMGGEMSLNLAYLYPDAVTHLILADATGIESFQQKESYEVPPLSTDLQTVTEITKYNKNEVKNSRDDKEHYDQLTKMRERRIAMEADKIKVPTLIIWGRHDKSVSWKNGELYHGLFANSTFHIIEKGYHAPFRQEPIEFMEYVQAFFAKHPQ,not soluble
4,MSGIIATYLIHDDSHNLEKKAEQIALGLTIGSWTHLPHLLQEQLKQHKGNVIHVEELAEHEHTNSYLRKKVKRGIIKIEYPLLNFSPDLPAILTTTFGKLSLDGEVKLIDLTFSDELKKHFPGPKFGIDGIRNLLQVHDRPLLMSIFKGMIGRNIGYLKTQLRDQAIGGVDIVKDDEILFENALTPLTKRIVSGKEVLQSVYETYGHKTLYAVNLTGRTFDLKENAKRAVQAGADILLFNVFAYGLDVLQSLAEDDEIPVPIMAHPAVSGAYSASKLYGVSSPLLLGKLLRYAGADFSLFPSPYGSVALEKEEALAISKYLTEDDASFKKSFSVPSAGIHPGFVPFIVRDFGKDVVINAGGGIHGHPNGAQGGGKAFRTAIDATLQNKPLHEVDDINLHSALQIWGNPSYEVKL,soluble
5,MKTRISSSRVRFSRYYLRIRESLISIPSRKNQFRFIRKNRFALQASFRSFTENSLTLSFMLLRRSPMKQSRTFLIF,not soluble
6,ASMTGGQQMGRGSASLPACPEESPLLVGPMLIEFNMPVDLELVAKQNPNVKMGGRYAPRDCVSPHKVAIIIPFRNRQEHLKYWLYYLHPVLQRQQLDYGIYVINQAGDTIFNRAKLLNVGFQEALKDYDYTCFVFSDVDLIPMNDHNAYRCFSQPRHISVAMDKFGFSLPYVQYFGGVSALSKQQFLTINGFPNNYWGWGGEDDDIFNRLVFRGMSISRPNAVVGTTRHIRHSRDKKNEPNPQRFDRIAHTKETMLSDGLNSLTYQVLDVQRYPLYTQITVDIGTPS,soluble
7,PGDESEEQSIKAGMMVCHVFVPGFDDLSEQQQIHMAQAIDHPVRKTAHATEYAMLAGLVLGAVTVSIIRWKNVLVSVCIAVLYASTDELHQLFVPGRSGQVKD,not soluble
8,AIAYASETASTQGLPALELDPEELLAQVQLLRAAVEGSRRESRELVGALERERRLNLEMRQRFERQFAAVSDQLLQLNHLQKESEALLQSLQEQLNEAELQKNAAQRELACVQRQLSLARAEADAGKRVLTTIAEKEALLRKTSQANADLQQIVMHLQAELRNSELQPSTSNASEERLHEAEIPSLADRDAYQTLQQTIEKLSAERDMWYHECARAKEESLRLQQDAERLRGLLDEQQRVHTTTQTLLQDRHLLMRRIIAALAEKYLMEKLPNQHYTQEIDSSPFQARGGTSVQEAHKHERLRRARSF,soluble
9,AEPTTHFGYQNVPESQKAKKVAEVFHSVAAKYDLMNDLMSGGIHRLWKRFTIELSGVRSGNRVLDIAGGTGDLTRQFSRLVGPTGEVVLADINASMLKVGRDKLLDKGVSGNVSFVQADAEKLPFPDNHFDCVTIAFGLRNVTHKDEAIRSMLRVLKPGGRLLVLEFSKPSSNLLSKAYDAYSFSLLPLMGKLVTNDSESYRYLAESIRMHPDQETLKAMMVEAGFDRVTYHNMTGGIV,not soluble
10,MAHHHHHHMYNFFASVNAPSTPPQKQPQVEPSLPPSACHHHVAASSLLDGMTAHNASLWLLNASQQRSLSYAHSGGGGDNLAGAEQEKRTAASQFYSTFPTAAAPPPSSGVQSLHGVGQQPAQQPHKHLCTSILQSYEHVGNSATPAPGLSSSLPLQEHQSSTWVTLRGGSLRMQLDGVPYSPFASTNASAASQPPDAAHGNEQYYDSTSHHRGYSASSASSIRHTLQVPASPQQQHQQQRLPISSSVWTAATPATAMPASLFASSSIRPLTNTTYPGYSCDWSGNALPTLPAAVPAPYVSGAALPVSSRSQTTYSVMPQPPQSGQPCSPTAHPATHSIMILHPTLDRGTAAILQASADAVNTPLHCLTDVKASEISGTTHYLEVVQGGGSVGDNSKHSYPSSIPIASRQPQPPLQQYYLQPTPQQHQQGQQLAAEQPPVHSCFLTNDGNMSHFVNHTTAAGAIIQPPSSMLSDIASLASLSSRTAGAGRSGAWQQPSTADMGSYKDQSSKLQLQQQQQQQQQQRRPVSAARQVTYTRGIPRRNRDRAVLFVGQLNYEATEADVSQVFSCYGKPLSVVVLKDKGKATKKGGAGGITGGSAATHRKVGGSAFVTYGTTLEADTAIMALHGRYNAKGDDVENVDNSKYLQVSYGQQTGLISAFGMMHAEKLHASKPENPIPLLVKDRTNGKL,not soluble
11,MSFKVISTGPQAIFQDRGRFGFASAGVGTSGSFDRLSAARANHALGNDPNATVVEILLGGFEVEALHTTSIVFTGTEAEVMVRTAGGQSKNATTNTIIDVAAGERIRVEPATYGMRAYFAARGGFAVEKTLGSASTDLISHMGPRPIEPGDVIDVATDIADSQWWPKLRQLPTLWKRMPTETLTVIRGPRDKWFTQESLNNFFTQVFTVSNDSNRIGLRMHSSEPIQHRVEGELKSEGMVRGSIQIPPGGNPVVFGPDHPVTGGYPVIAVLTSRSCDRSAQLLPGDKVRFKLL,not soluble
12,MADEKMSEFTDEELNKKVKELQDAVIEKVRTEAETPAVSGGYPGSNAYRPELDRVPSREEILERISWLREMIDDILKPKPSDFDPLIEKTEKLRDLFGVESHQPGGDSRLRNIDTSKNAIQQWDGAFADNLAEKYFAPLEDVRGNHGRMAKVLNENAVAMKATYVHARGQAKRTLDDGVKAIEAIVDSKGSDLKILLAILTGATSLITPLLPSKTAVQLGSAGLSTLLSNLGEAGPEEQEEVPLGADTPEGVMDNVKEALEKVKTKRGEDEDSIIKAVNDSEKAIYERMTKSTHQTEDDPIYAPRPTIMDSSKPSEGLTKD,not soluble
13,MSLAKRIKIDNASSKFRRQSQKREQKVIRCSVLIVCEGTKTEPNYFEAFAEKQQGVIVYDIEVKGLGRGTKDVVEKAIDLKNKNNYDRVWAVFDRDEFPAKDFNEAIAMGQKNSIEVAWSNEAFELWYLYHFQNVITGVSRKDYEEKISTAVNASPKYKSKKKYRYAKKDPNNYKIMTTYGSMESALRYAEAKHLEYADSRYANQNPCTTIYQLVRQLLGRDEKLNAELIARIGENEGHHHHHH,soluble
14,MAIIIGADKAGQELKEVIKDYLKEGKYEVVDVSENEVRDFVDTTLAVVKEVNASDDNLGIVIDAYGVGSFMVATKIKGMVAAEVSDERSAYMTRGHNNARIITLGSEISAPGIAKNIIKGFVEGKYDGGRHQVRVDMLNKMC,soluble
